Laboratory results from US20070212700A1, “Methods of using and analyzing biological sequence data” (THE BOARD OF REGENTS OF THE UNIVERSITY OF TEXAS SYSTEM, priority 2005, published 2007).

Biological target: PPxY-containing peptide
Assay: isothermal titration calorimetry, ratio of equilibrium dissociation constants (mutant vs wild-type Nedd4.3 WW domain)

Nedd4.3 WW domain L3A mutant (from UniProt Q62940 459-492)
fold effect on peptide binding relative to wild-type: 5.15 fold
